Results from patent US11298402B2, “Lysosomal degradation of lipids and proteins and method of use thereof” (University of Ottawa, priority 2015, dated 2022).

Assays:
[1] = system: HCV core protein expressing cells; assay: Imaging of HCV core protein expressing cells; assay type: cell-based
Text: This may be because the presence of HCV core protein may “lock” lysosomes onto the LD surface during the lysosomal engulfment process, resulting in scattered distribution of lysosomes throughout the cell cytoplasm. This situation is similar to that observed in cells after prolonged treatment with oleate (see FIG. 36, top row). White arrows indicate HCV core protein (pseudo-colored in green) and lysosomes (LysoTracker; blue) in association with LDs;
FIG. 41 provides data illustrating the effect of Arl8b “DN” on HCV core distribution and interaction between lysosomes and lipid droplets.
As shown in HCV core protein expressing cells (FIG. 41, left panel), the HCV core proteins (GFP-tagged) are bound to CLDs. The core protein binding to the CLDs apparently renders persistent lysosomal interaction with CLDs (i.e. kiss without run) and thus impaired microautophagy. As explained with reference to FIG. 39, functional microautophagy includes proper lysosomal engulfment (Kiss) and termination of this process, via lysosomal “go”, “interact”, and “back” events. As detailed herein, by introducing a putative GDP-bound form or Arl8b (Arl8b^T34N) into the HCV core protein-expressing cells, microautophagy functionality may be restored (FIG. 41, right panel). […]

hepatic cells = assay: Prolonged oleate treatment (OA-induced steatosis) of hepatic cells; assay type: cell-based; conditions: for steatosis (CLD accumulation): oleate 0.4 mM for up to 3 days
Text: FIG. 36 illustrates that the LD content in cells cultured under lipid-rich conditions may be manipulated by expression of different forms of Arl8b. Images in the top row show position of lysosomes in cells cultured in a lipid-rich medium (i.e. supplemented with oleate) for up to 4 days. After 1-day treatment with oleate, lysosomes (stained with LysoTracker, green) were accumulated in the perinuclear regions of cells. However after 2-day oleate treatment, lysosomes were relocated towards the LDs at cell periphery. The relocation of lysosomes from the perinuclear region toward cell periphery indicates perturbed lysosomal motility under oleate-treatment conditions, which leads to prolonged association of lysosomes with LDs. Accumulation/higher interaction of lysosomes on LDs became more pronounced after 3- and 4-day treatment with oleate, with clear rings of lysosomes around LDs. Expression of the GDP-bound form of Arl8b, or Arl8b^T34N (or Arl8b “DN”, dominant negative), protects hepatocytes from accumulation of LDs upon long-term treatment with oleate. Note that even after 3 days, cells expressing Arl8b “DN” were healthy and accumulated low numbers of LDs (middle row). In contrast, expression of the GTP-bound form of Arl8b, or Arl8b^Q75L (or Arl8b “DA”, dominant active), exacerbated accumulation of LDs in cells (images in the bottom row). In fact, the cells could not tolerate long-term treatment and started to die after day 2. This situation may be similar to that in advanced levels of fatty liver, which causes hepatocyte apoptosis;
In these cells, lysosomes were continuously in contact with CLD, indicative of stalled lysosomal motility. This persistent lysosomal interaction with CLDs (i.e. “kiss” without “run”) clearly indicates the interfered process of microautophagy and lack of a mechanism in the cells, after prolonged OA treatment, that facilitates dissociation of lysosomes from CLDs, blocking the engulfment process. Thus, phenotypically, accumulation of CLD in cells cultured in lipid-rich media (e.g. supplementation with 0.4 mM OA) is invariably associated with a compromised lysosomal motility (i.e. kiss-and-run).

[2] = system: McA-RH7777 cells (A18-C3); assay: Immuno-EM of Arl8b organellar association; assay type: cell-based, rat; conditions: RFP-tagged Arl8b in transfected cells, 1 h post-EPA
Protocol: For immunogold labeling, pellets of cells cultured in media containing OA or EPA (0.4 mM) were fixed with 0.5% glutaraldehyde and 4% paraformaldehyde in 0.1 M phosphate buffer (pH 7.4) and dehydrated through a series of graded ethanol dilutions, and embedded in LR White acrylic resin (London Resin Company). Ultrathin sections (80 nm) were placed on Formvar-coated nickel grids. For post-embedding immunolabeling, the sections were incubated with an anti-Arl8b antibody (Fitzgerald) for 1 h. For ^RFPArl8b-transfected cells, that primary antibody used was anti-RFP (Abcam). After washing with 0.2 M sodium cacodylate buffer containing 0.1% calcium chloride, pH 7.4, the samples were incubated with the secondary antibody conjugated with 10-nm gold particles. To increase contrast, the ultrathin sections were stained with 2% uranyl acetate for 6 min and Reynold's lead for 5 min. The grids were examined with a Tecnai 12 120 kV TEM as described above.

Molecule	HCV core protein distribution on CLD [1]	lysosome association with LD surface [1]	steatosis (CLD accumulation) (hepatic cells)	organellar association (lysosome vs CLD) [2]	cell survival under OA treatment (hepatic cells; medium with 0.4 mM OA, 2-day incubation)
Arl8b^T34N: putative GDP-bound, dominant negative Arl8b mutant (Thr-to-Asn at 34; SEQ ID NO: 12), expressed from plasmid or adenovirus Adv-MG1023; tagged forms used (protein, GFP/RFP tags in some forms; T34N substitution, GDP-binding, tagged forms used) MLALISRLLDWFRSLFWKEEMELTLVGLQYSGKNTFVNVIASGQFSEDMIPTVGFNMRKVTKGNVTIKIWDIGGQPRFRSMWERYCRGVNAIVYMIDAADREKIEASRNELHNLLDKPQLQGIPVLVLGNKRDLPNALDEKQLIEKMNLSAIQDREICCYSISCKEKDNIDITLQWLIQHSKSRRS	displaced HCV core protein from the CLD surface	effectively displace lysosomes from LD surface	without indication of steatosis	mainly CLD-borne	–
Arl8b^Q75L: putative GTP-bound, dominant active Arl8b mutant (Gln-to-Leu at 75; SEQ ID NO: 13), expressed from plasmid or adenovirus Adv-MG1022; tagged forms used (protein, GFP/RFP tags in some forms; Q75L substitution, GTP-binding, tagged forms used) MLALISRLLDWFRSLFWKEEMELTLVGLQYSGKTTFVNVIASGQFSEDMIPTVGFNMRKVTKGNVTIKIWDIGGLPRFRSMWERYCRGVNAIVYMIDAADREKIEASRNELHNLLDKPQLQGIPVLVLGNKRDLPNALDEKQLIEKMNLSAIQDREICCYSISCKEKDNIDITLQWLIQHSKSRRS	–	–	developed severe steatosis	predominately associated with lysosomes	most of the cells died
